Source: article PMC11036266

molecular target: Human VEGF165 (human) (UniProt P15692); assay: ELISA; human VEGF165 coated on MaxiSorp plates (0.4 µg/mL in PBS, pH 7.4, overnight); aflibercept samples added as 2-fold serial dilutions (1000.0-1.0 ng/mL) in 4% milk powder in PBS-T, RT, 1.5 h; detected with anti-human IgG γ chain-HRPO; EC50 by four-parametric log model
Sequence (P15692 other isoform, or with tags, fused parts or gaps): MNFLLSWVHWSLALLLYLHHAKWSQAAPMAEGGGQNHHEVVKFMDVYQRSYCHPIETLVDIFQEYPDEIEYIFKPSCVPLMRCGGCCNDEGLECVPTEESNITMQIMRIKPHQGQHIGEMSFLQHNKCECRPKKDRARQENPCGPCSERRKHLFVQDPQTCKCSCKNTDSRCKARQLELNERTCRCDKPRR

Chain of Aflibercept with sialylated N-glycans (AFLI^Sia), isolated from intercellular fluid (Fc fusion) (chain): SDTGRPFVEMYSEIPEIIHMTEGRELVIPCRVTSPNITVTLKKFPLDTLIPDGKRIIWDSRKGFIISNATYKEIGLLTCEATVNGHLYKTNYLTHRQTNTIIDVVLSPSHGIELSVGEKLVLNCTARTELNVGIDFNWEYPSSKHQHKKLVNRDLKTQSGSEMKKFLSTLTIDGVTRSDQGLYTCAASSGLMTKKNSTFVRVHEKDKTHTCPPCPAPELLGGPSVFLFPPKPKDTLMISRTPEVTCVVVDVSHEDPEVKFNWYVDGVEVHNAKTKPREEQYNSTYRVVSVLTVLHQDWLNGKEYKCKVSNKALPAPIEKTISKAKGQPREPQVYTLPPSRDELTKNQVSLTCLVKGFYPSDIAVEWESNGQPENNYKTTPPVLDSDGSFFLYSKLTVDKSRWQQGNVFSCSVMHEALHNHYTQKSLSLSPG
Chain of Aflibercept with sialylated N-glycans (AFLI^Sia), isolated from total soluble protein (Fc fusion) (chain): as above
Chain of Aflibercept with GlcNAc-terminated N-glycans (AFLI^GnGn), isolated from total soluble protein (Fc fusion) (chain): as above

EC50	Substance
0.242 nM	Aflibercept with GlcNAc-terminated N-glycans (AFLI^GnGn), isolated from total soluble protein (Fc fusion)
0.358 nM	Aflibercept with sialylated N-glycans (AFLI^Sia), isolated from intercellular fluid (Fc fusion)
0.31 nM	Aflibercept with sialylated N-glycans (AFLI^Sia), isolated from total soluble protein (Fc fusion)
